# Experimental data published in patent US20260125457A1 (Janssen / Centocor, published 2026).
# T1: wild-type calreticulin (CALRwt) expressed with MPL in engineered cancer cells (UniProt P27797 18-417, limits assumed)
# T1 construct: whole, on cells; also called OCI-M2 MPL CALRwt
# T1 sequence (looked up): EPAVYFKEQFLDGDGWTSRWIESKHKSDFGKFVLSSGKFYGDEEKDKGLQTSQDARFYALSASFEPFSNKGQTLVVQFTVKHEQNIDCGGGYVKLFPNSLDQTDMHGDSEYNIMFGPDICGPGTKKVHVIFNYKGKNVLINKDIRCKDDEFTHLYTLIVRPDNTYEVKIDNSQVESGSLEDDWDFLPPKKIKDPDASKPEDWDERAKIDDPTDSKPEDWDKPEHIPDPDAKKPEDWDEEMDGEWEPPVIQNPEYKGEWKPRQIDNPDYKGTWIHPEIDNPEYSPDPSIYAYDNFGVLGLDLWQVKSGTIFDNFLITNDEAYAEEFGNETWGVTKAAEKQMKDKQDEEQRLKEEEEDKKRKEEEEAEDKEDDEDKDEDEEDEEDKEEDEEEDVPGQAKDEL
# T2: CALRins5 (mutant calreticulin, 5 base pair insertion, Type 2) expressed with MPL on engineered cancer cells (UniProt P27797 18-417)
# T2 construct: whole, on cells; On the cell surface in complex with MPL; also called OCI-M2 MPL CALRins5
# T2 sequence (looked up): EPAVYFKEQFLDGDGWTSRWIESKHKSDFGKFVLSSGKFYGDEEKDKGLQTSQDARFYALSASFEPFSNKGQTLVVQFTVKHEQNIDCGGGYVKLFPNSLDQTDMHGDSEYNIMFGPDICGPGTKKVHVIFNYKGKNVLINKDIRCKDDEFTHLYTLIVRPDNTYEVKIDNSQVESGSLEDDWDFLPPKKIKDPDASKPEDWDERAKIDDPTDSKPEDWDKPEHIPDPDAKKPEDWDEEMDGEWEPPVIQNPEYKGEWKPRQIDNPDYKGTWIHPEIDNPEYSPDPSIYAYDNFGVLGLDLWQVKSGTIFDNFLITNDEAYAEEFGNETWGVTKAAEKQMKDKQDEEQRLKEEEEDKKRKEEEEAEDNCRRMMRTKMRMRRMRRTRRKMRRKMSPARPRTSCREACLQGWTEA
# B1: C3CRB133 CALRmut x CD3 bispecific antibody (bispecific antibody, human IgG1, kappa, L234A L235A)
# scFv: DIQMTQSPSSLSASVGDRVTITCRARQSIGTAIHWYQQKPGCAPKLLIKYASESISGVPSRFSGSGSGTDFTLTISSLQPEDFATYYCQQSGSWPYTFGQGTKLEIKGGGSGGSGGCPPCGGSGGEVQLVESGGGLVKPGGSLRLSCAASGFTFSRYNMNWVRQAPGKGLEWVSSISTSSNYIYYADSVKGRFTFSRDNAKNSLDLQMSGLRAEDTAIYYCTRGWGPFDYWGCGTLVTVSSEPKSSDKTHTCPPCPAPEAAGGPSVFLFPPKPKDTLMISRTPEVTCVVVSVSHEDPEVKFNWYVDGVEVHNAKTKPREEQYNSTYRVVSVLTVLHQDWLNGKEYKCKVSNKALPAPIEKTISKAKGQPREPQVYTLPPSREEMTKNQVSLWCLVKGFYPSDIAVEWESNGQPENNYKTTPPVLDSDGSFFLYSKLTVDKSRWQQGNVFSCSVMHEALHNHYTQKSLSLSPGK
# heavy: DIQMTQSPSTLSASVGDRVTITCQASQSLYNNKNLAWYQQKPGCAPKLLIYYASALASGVPSRFSGSGSGTEFTLTISSLQPDDFATYYCQGEFNCNSADCNSFGGGTKVEIKGGGSGGSGGCPPCGGSGGQVQLVQSGAEVKKPGASVKVSCKASGFSLSSYAMSWVRQAPGQGLEWMGVIDSGGTTYYAQKFQGRVTMTRDTSTSTVYMELSSLRSEDTAVYYCARESYAGYDYYGHPIPYGMEPWGCGTLVTVSSGGGGSGGGGSEVQLLESGGGLVQPGGSLRLSCAVSGIDLSNNAISWVRQAPGKGLEYVGVIGNTGDTYYADSAKGRFTISRDSSKTTLYLQMNSLRAEDTAVYFCVRGPPSYSSSVKNIWGQGTLVTVSSASTKGPSVFPLAPSSKSTSGGTAALGCLVKDYFPEPVTVSWNSGALTSGVHTFPAVLQSSGLYSLSSVVTVPSSSLGTQTYICNVNHKPSNTKVDKKVEPKSCDKTHTCPPCPAPEAAGGPSVFLFPPKPKDTLMISRTPEVTCVVVSVSHEDPEVKFNWYVDGVEVHNAKTKPREEQYNSTYRVVSVLTVLHQDWLNGKEYKCKVSNKALPAPIEKTISKAKGQPREPQVYTLPPSREEMTKNQVSLSCAVKGFYPSDIAVEWESNGQPENNYKTTPPVLDSDGSFFLVSKLTVDKSRWQQGNVFSCSVMHEALHNRFTQKSLSLSPGK
# light: DIQMTQSPSSVSASVGDRVTITCQSSQSVYNNNWLSWLQQKPGKAPKRLIYDASKLESGVPSRFSGSGSGTDFTLTISSVQPEDAATYYCAGGFTGNVYTFGGGTKVEIKRTVAAPSVFIFPPSDEQLKSGTASVVCLLNNFYPREAKVQWKVDNALQSGNSQESVTEQDSKDSTYSLSSTLTLSKADYEKHKVYACEVTHQGLSSPVTKSFNRGEC
# notes: Chain B heavy: CALRB1114 spFv N-terminal of the CALRB421 heavy chain
# B2: C3CRB135 CALRmut x CD3 bispecific antibody (bispecific antibody, human IgG1, kappa, L234A L235A)
# heavy: EVQLLESGGGLVQPGGSLRLSCAVSGIDLSNNAISWVRQAPGKGLEYVGVIGNTGDTYYADSAKGRFTISRDSSKTTLYLQMNSLRAEDTAVYFCVRGPPSYSSSVKNIWGQGTLVTVSSASTKGPSVFPLAPSSKSTSGGTAALGCLVKDYFPEPVTVSWNSGALTSGVHTFPAVLQSSGLYSLSSVVTVPSSSLGTQTYICNVNHKPSNTKVDKKVEPKSCDKTHTCPPCPAPEAAGGPSVFLFPPKPKDTLMISRTPEVTCVVVSVSHEDPEVKFNWYVDGVEVHNAKTKPREEQYNSTYRVVSVLTVLHQDWLNGKEYKCKVSNKALPAPIEKTISKAKGQPREPQVYTLPPSREEMTKNQVSLSCAVKGFYPSDIAVEWESNGQPENNYKTTPPVLDSDGSFFLVSKLTVDKSRWQQGNVFSCSVMHEALHNRFTQKSLSLSPGKGGGGSGGGGSDIQMTQSPSTLSASVGDRVTITCQASQSLYNNKNLAWYQQKPGCAPKLLIYYASALASGVPSRFSGSGSGTEFTLTISSLQPDDFATYYCQGEFNCNSADCNSFGGGTKVEIKGGGSGGSGGCPPCGGSGGQVQLVQSGAEVKKPGASVKVSCKASGFSLSSYAMSWVRQAPGQGLEWMGVIDSGGTTYYAQKFQGRVTMTRDTSTSTVYMELSSLRSEDTAVYYCARESYAGYDYYGHPIPYGMEPWGCGTLVTVSSH
# light: B1 light
# scFv: B1 scFv
# notes: Chain A heavy: CALRB421 heavy chain with CALRB1114 spFv at the C-terminus
# B3: C3CRB134 CALRmut x CD3 bispecific antibody (bispecific antibody)
# scFv: B1 scFv
# heavy: EVQLLESGGGLVQPGGSLRLSCAVSGIDLSNNAISWVRQAPGKGLEYVGVIGNTGDTYYADSAKGRFTISRDSSKTTLYLQMNSLRAEDTAVYFCVRGPPSYSSSVKNIWGQGTLVTVSSASTKGPSVFPLAPSSKSTSGGTAALGCLVKDYFPEPVTVSWNSGALTSGVHTFPAVLQSSGLYSLSSVVTVPSSSLGTQTYICNVNHKPSNTKVDKKVEPKSCGGGGSGGGGSDIQMTQSPSTLSASVGDRVTITCQASQSLYNNKNLAWYQQKPGCAPKLLIYYASALASGVPSRFSGSGSGTEFTLTISSLQPDDFATYYCQGEFNCNSADCNSFGGGTKVEIKGGGSGGSGGCPPCGGSGGQVQLVQSGAEVKKPGASVKVSCKASGFSLSSYAMSWVRQAPGQGLEWMGVIDSGGTTYYAQKFQGRVTMTRDTSTSTVYMELSSLRSEDTAVYYCARESYAGYDYYGHPIPYGMEPWGCGTLVTVSSEPKSSDKTHTCPPCPAPEAAGGPSVFLFPPKPKDTLMISRTPEVTCVVVSVSHEDPEVKFNWYVDGVEVHNAKTKPREEQYNSTYRVVSVLTVLHQDWLNGKEYKCKVSNKALPAPIEKTISKAKGQPREPQVYTLPPSREEMTKNQVSLSCAVKGFYPSDIAVEWESNGQPENNYKTTPPVLDSDGSFFLVSKLTVDKSRWQQGNVFSCSVMHEALHNRFTQKSLSLSPGK
# light: B1 light
# notes: Chain B heavy: CALRB421 Fab heavy part, CALRB1114 spFv, Fc
# Molecular target: T1, wild-type calreticulin (CALRwt) …
# Test: flow cytometry on OCI-M2 MPL CALRwt cells, 1 h at 37 C, AF647 secondary antibody, Geometric mean
# Method: (§1) FIGS. 27A-27F depict binding of different CALRmutxCD3 antibodies to CALRmut-negative or CALRmut-positive cells. Flow cytometry was used to evaluate CALRmutxCD3 binding to CALRmut-negative and CALRmut-positive cancer cells in vitro. CALRmutxCD3 antibodies were tested on a panel of cell lines, engineered to express MPL and CALRmut, after 1 hour 37° C. incubation, with subsequent incubation with secondary AF647-labeled antibody. Geometric mean fluorescence intensity of AF647 was measured to determine antibody binding.
row,binding result,Binder
1,no binding (tested: 100 nM),B1
2,no binding (tested: 100 nM),B2
3,no binding (tested: 100 nM),B3

# Molecular target: T2, CALRins5 (mutant calreticulin, 5 base …)
# Test: flow cytometry on OCI-M2 MPL CALRins5 cells, 1 h at 37 C, AF647 secondary antibody, Geometric mean
# Method: as §1
row,EC50 (read off the curve) [nM],Binder
1,~5,B1
2,~3,B2
3,~3,B3

# Molecular target: T2, CALRins5 (mutant calreticulin, 5 base …)
# Test: flow cytometry on ELF-153 MPL CALRins5 cells, 1 h at 37 C, AF647 secondary antibody, Geometric mean
# Method: as §1
row,EC50 (read off the curve) [nM],Binder
1,~1,B1
2,~1,B2
3,~1,B3
